± gives the uncertainty stated by the source.
Test: self-splicing fitness, log relative to wild type (ln ratio); higher = more splicing; Tetrahymena group I intron in knt gene, E. coli kanamycin selection, DiMSum; sequences stand for … in CUCUCU…GGAGGGAAAAGUUAUCAGGCAUGCACCUGGUAGCUAGUCUUUAAACCAAUAGAUUGCAUCGGUUUAAAAGGCAAGACCGUCAAAUUGCGGGAAAGGGGUCAACAGCCGUUCAGUACCAAGUCUCAGGGGAAACUUUGAGAUGGCCUUGCAAAGGGUAUGGUAAUAAGCUGACGGACAUGGUCCUAACCACGCAGCCAAGUCCUAAGUCAACAGAUCUUCUGUUGAUAUGGAUGCAGUUCACAGACUAAAUGUCGGUCGGGGAAGAUGUAUUCUUCUCAUAAGAUAUAGUCGGACCUCUCCUUAAUGGGAGCUAGCGGAUGAAGUGAUGCAACACUGGAGCCGCUGGGAACUAAUUUGUAUGCGAAAGUAUAUUGAUUAGUUUUGGAGUACUCGUGGUCG
Method in brief: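 Colonies from six replicate transformations of E. coli BL21(DE3) were pooled and amplicon-sequenced on an Illumina HiSeq 2500. The library placed an intron with all eight P1ex-region nucleotides randomised inside the knt kanamycin-resistance gene on pET-22b(+), and cells grew overnight at 37°C or 30°C on LB agar with or without 25 μg/mL kanamycin (plus 100 μg/mL carbenicillin, 50 μM IPTG, 0.2% rhamnose). Fitness is the DiMSum error-weighted combination of wild-type-normalised replicate fold changes, kanamycin versus none.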

Sequence | self-splicing fitness (ln) (30 °C) | self-splicing fitness (ln) (37 °C)
AUCGAGCAAUAUUACGAGGG | -1.4 ± 0.17 | -2.1 ± 0.46
AUCGAGCAAUAUUACGAGUA | -3.25 ± 0.41 | -1.58 ± 0.28
AUCGAGCAAUAUUACGAUGG |  | -2.17 ± 0.38
AUCGAGCAAUAUUACGAUGU | -2.9 ± 0.12 | -1.76 ± 0.11
AUCGAGCAAUAUUACGCCCA | -1.77 ± 0.24 | -1.37 ± 0.3
AUCGAGCAAUAUUACGCCGA | -3.08 ± 0.34 | 
AUCGAGCAAUAUUACGCUAA | -3.48 ± 0.21 | -2.88 ± 0.18
AUCGAGCAAUAUUACGCUCG | -2.72 ± 0.35 | 
AUCGAGCAAUAUUACGCUUA | -2.01 ± 0.18 | -0.429 ± 0.13
AUCGAGCAAUAUUACGGAAG |  | -0.716 ± 0.16
AUCGAGCAAUAUUACGGACC | -0.501 ± 0.48 | 
AUCGAGCAAUAUUACGGUCC | -3.46 ± 0.46 | 
AUCGAGCAAUAUUACGUAAG | -2.16 ± 0.44 | -1.61 ± 0.3
AUCGAGCAAUAUUACGUAGU | -3.47 ± 0.14 | -1.96 ± 0.15
AUCGAGCAAUAUUACGUAUG | -3.84 ± 0.19 | -4.4 ± 0.46
AUCGAGCAAUAUUACGUAUU | -3.67 ± 0.21 | -2.5 ± 0.18
AUCGAGCAAUAUUACGUCCA |  | 0.309 ± 0.47
AUCGAGCAAUAUUACGUCUG | -3.46 ± 0.34 | -1.43 ± 0.19
AUCGAGCAAUAUUACGUGGG | -4.14 ± 0.33 | -2.42 ± 0.24
AUCUAGCAAUAUUACGAACA | -1.53 ± 0.14 | -0.645 ± 0.12
AUCUAGCAAUAUUACGAGAG | -1.88 ± 0.11 | -0.329 ± 0.1
AUCUAGCAAUAUUACGAGGC |  | -2.69 ± 0.34
AUCUAGCAAUAUUACGAUAG | -2.36 ± 0.33 | -1.16 ± 0.44
AUCUAGCAAUAUUACGAUUG | -3.1 ± 0.28 | -2.79 ± 0.34
AUCUAGCAAUAUUACGCAAU | -2.02 ± 0.089 | -1.37 ± 0.09

Sequence | self-splicing fitness (ln) (30 °C) | self-splicing fitness (ln) (37 °C)
AUCUAGCAAUAUUACGCGAC | -2.29 ± 0.4 | -0.43 ± 0.39
AUCUAGCAAUAUUACGCGAU |  | -2.53 ± 0.29
AUCUAGCAAUAUUACGCGUA | -0.86 ± 0.11 | -0.721 ± 0.13
AUCUAGCAAUAUUACGCUAC | -1.85 ± 0.34 | -1.72 ± 0.4
AUCUAGCAAUAUUACGGAAU | -1.87 ± 0.16 | -2.1 ± 0.19
AUCUAGCAAUAUUACGGACC | -0.962 ± 0.16 | -0.141 ± 0.23
AUCUAGCAAUAUUACGGCCU | -0.214 ± 0.1 | -0.589 ± 0.14
AUCUAGCAAUAUUACGGUCC | -1.34 ± 0.21 | 1.22 ± 0.25
AUCUAGCAAUAUUACGUAGC | -3.71 ± 0.35 | -1.84 ± 0.27
AUCUAGCAAUAUUACGUCCU | -1.07 ± 0.078 | 0.137 ± 0.096
AUCUAGCAAUAUUACGUUGA | -2.53 ± 0.11 | -1.7 ± 0.11
AUCUAGCAAUAUUACGUUGU | -3.68 ± 0.17 | -2.27 ± 0.13
AUGAAGCAAUAUUACGAACG | -0.583 ± 0.094 | 0.0323 ± 0.12
AUGAAGCAAUAUUACGACAU | 0.292 ± 0.012 | 0.49 ± 0.032
AUGAAGCAAUAUUACGACCG | -0.584 ± 0.24 | -0.447 ± 0.27
AUGAAGCAAUAUUACGACUA | 0.0947 ± 0.059 | -0.133 ± 0.059
AUGAAGCAAUAUUACGAGAC | -2.73 ± 0.43 | -1.28 ± 0.47
AUGAAGCAAUAUUACGAGAG | -2.78 ± 0.15 | -0.788 ± 0.1
AUGAAGCAAUAUUACGAGAU | -2.93 ± 0.21 | -1.28 ± 0.21
AUGAAGCAAUAUUACGAGGG | -2.64 ± 0.21 | -2.83 ± 0.28
AUGAAGCAAUAUUACGAGGU | -3.32 ± 0.15 | -2.07 ± 0.18
AUGAAGCAAUAUUACGAUAG | -4.07 ± 0.39 | -2.33 ± 0.32
AUGAAGCAAUAUUACGAUCU | -0.0854 ± 0.072 | 0.317 ± 0.088
AUGAAGCAAUAUUACGAUUU | 0.114 ± 0.062 | 0.345 ± 0.071
AUGAAGCAAUAUUACGCACA | 0.703 ± 0.097 | 0.63 ± 0.14

Sequence | self-splicing fitness (ln) (30 °C) | self-splicing fitness (ln) (37 °C)
AUGAAGCAAUAUUACGCAGU | -1.36 ± 0.11 | -0.415 ± 0.11
AUGAAGCAAUAUUACGCCGU | -0.474 ± 0.12 | -0.0165 ± 0.14
AUGAAGCAAUAUUACGCGCG | -0.094 ± 0.087 | -0.808 ± 0.098
AUGAAGCAAUAUUACGCGGG | -1.39 ± 0.11 | -0.785 ± 0.14
AUGAAGCAAUAUUACGGCAG | 0.378 ± 0.086 | -0.115 ± 0.1
AUGAAGCAAUAUUACGGUAG | -2.93 ± 0.17 | -2.03 ± 0.23
AUGAAGCAAUAUUACGGUAU | -0.945 ± 0.066 | -0.484 ± 0.086
AUGAAGCAAUAUUACGUAAA | -1.99 ± 0.09 | -1.27 ± 0.11
AUGAAGCAAUAUUACGUAGG | -2.79 ± 0.16 | -1.25 ± 0.18
AUGAAGCAAUAUUACGUAUC | -4.1 ± 0.24 | -1.99 ± 0.18
AUGAAGCAAUAUUACGUCAG | -0.198 ± 0.057 | 0.134 ± 0.073
AUGAAGCAAUAUUACGUCUG | -0.0483 ± 0.061 | 0.316 ± 0.079
AUGAAGCAAUAUUACGUGGU | -1.71 ± 0.07 | -1.31 ± 0.087
AUGAAGCAAUAUUACGUUUC | -4.39 ± 0.2 | -3.03 ± 0.15
AUGCAGCAAUAUUACGAACA | -0.00786 ± 0.13 | 0.392 ± 0.16
AUGCAGCAAUAUUACGACAA | -0.348 ± 0.075 | -0.366 ± 0.093
AUGCAGCAAUAUUACGAGCG | -0.487 ± 0.063 | -0.0426 ± 0.084
AUGCAGCAAUAUUACGAGUU | -3.2 ± 0.11 | -1.39 ± 0.1
AUGCAGCAAUAUUACGAUAG | -2.99 ± 0.19 | -2.57 ± 0.22
AUGCAGCAAUAUUACGCAAC | -2.42 ± 0.18 | -2.58 ± 0.2
AUGCAGCAAUAUUACGCCGA | -1.55 ± 0.14 | -0.543 ± 0.17
AUGCAGCAAUAUUACGCGCG | -0.941 ± 0.1 | -0.349 ± 0.1
AUGCAGCAAUAUUACGCGGU | -4.01 ± 0.21 | -1.85 ± 0.16
AUGCAGCAAUAUUACGCUAC | -3.31 ± 0.21 | -2.38 ± 0.23
AUGCAGCAAUAUUACGGACC | -1.52 ± 0.17 | -0.744 ± 0.17

Sequence | self-splicing fitness (ln) (30 °C) | self-splicing fitness (ln) (37 °C)
AUGCAGCAAUAUUACGGGAA | -2.83 ± 0.16 | -1.92 ± 0.14
AUGCAGCAAUAUUACGGGCG | 0.108 ± 0.089 | 0.464 ± 0.11
AUGCAGCAAUAUUACGGGGA | -2.64 ± 0.16 | -2.26 ± 0.18
AUGCAGCAAUAUUACGGUGU | -3.52 ± 0.16 | -1.63 ± 0.14
AUGCAGCAAUAUUACGUAUA | -2.57 ± 0.27 | -1.6 ± 0.16
AUGCAGCAAUAUUACGUCUU | 0.0107 ± 0.076 | 0.303 ± 0.082
AUGCAGCAAUAUUACGUGCA | -2.07 ± 0.1 | -0.922 ± 0.1
AUGCAGCAAUAUUACGUGGA | -3.1 ± 0.29 | -1.73 ± 0.18
AUGCAGCAAUAUUACGUGUC | -3.68 ± 0.18 | -3.18 ± 0.2
AUGCAGCAAUAUUACGUGUU | -4.05 ± 0.16 | -2.66 ± 0.17
AUGCAGCAAUAUUACGUUGA | -2.97 ± 0.14 | -2.41 ± 0.12
AUGGAGCAAUAUUACGAAGU |  | -1.77 ± 0.36
AUGGAGCAAUAUUACGACAA | -1.86 ± 0.22 | -2.46 ± 0.22
AUGGAGCAAUAUUACGACGU | -0.474 ± 0.09 | -0.306 ± 0.099
AUGGAGCAAUAUUACGACUA | -1.08 ± 0.14 | -1.33 ± 0.16
AUGGAGCAAUAUUACGACUG | -2.28 ± 0.3 | 
AUGGAGCAAUAUUACGAGAA |  | -1.43 ± 0.34
AUGGAGCAAUAUUACGAGAG |  | -2.04 ± 0.23
AUGGAGCAAUAUUACGAGUC | -2.08 ± 0.41 | 
AUGGAGCAAUAUUACGAUAU | -1.77 ± 0.12 | -1.17 ± 0.15
AUGGAGCAAUAUUACGAUGG | -2.22 ± 0.29 | -2.47 ± 0.44
AUGGAGCAAUAUUACGAUUC | -2.21 ± 0.3 | 
AUGGAGCAAUAUUACGCGAA | -1.66 ± 0.31 | -2.36 ± 0.29
AUGGAGCAAUAUUACGCGAC | -1.94 ± 0.28 | -2.79 ± 0.43
AUGGAGCAAUAUUACGCGCC |  | -1.2 ± 0.34

Reference: the supplement of paper PMC7877785
